Data reported in paper PMC7728236 (PLoS Pathogens, 2020).

Biological target: the molecule itself
Assay: cryo-EM structure

B1: full-length hemagglutinin (HA) of influenza virus A/Hong Kong/1/1968 (H3N2), trypsin-cleaved into HA1/HA2 (natural protein)
chain 1: not shown
chain 2: not shown
notes: copies: 3 + 3
For B1, the “stoichiometry N” value was 3.
